Assay results from patent US20220127341A1 (HUDSON INSTITUTE OF MEDICAL RESEARCH, published 2022).

Experiments:
[1] = molecular target: T1, human KRT14 (Keratin, type I cytoskeletal 14) as expressed by human cancer cells and tumour tissue (Homo sapiens (Human), UniProt P02533 1-472); assay: flow cytometry
T1 construct: whole, on cells; Probed on intact cells (surface-exposed N-terminal portion), on permeabilized cells and in FFPE tissue sections; also called K14; Keratin-14
T1 sequence (looked up): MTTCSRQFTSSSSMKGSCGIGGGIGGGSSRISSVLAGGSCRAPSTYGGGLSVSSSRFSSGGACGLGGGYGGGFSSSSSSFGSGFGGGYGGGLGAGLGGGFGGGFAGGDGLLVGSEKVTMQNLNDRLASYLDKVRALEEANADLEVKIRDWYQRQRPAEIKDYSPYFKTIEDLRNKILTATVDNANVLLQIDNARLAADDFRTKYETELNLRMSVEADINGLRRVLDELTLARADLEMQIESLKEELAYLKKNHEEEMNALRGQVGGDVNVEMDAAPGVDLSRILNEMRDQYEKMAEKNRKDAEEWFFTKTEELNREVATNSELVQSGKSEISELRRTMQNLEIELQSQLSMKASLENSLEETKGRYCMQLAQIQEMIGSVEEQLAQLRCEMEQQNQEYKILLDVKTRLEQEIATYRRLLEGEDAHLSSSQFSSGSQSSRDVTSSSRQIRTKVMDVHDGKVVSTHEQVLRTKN
Experimental: OVCAR3, CAOV4, ID8 and the patient-derived 3.1937-07 cell lines were analysed on a BD LSRFortessa X-20 (BD Biosciences) flow cytometer for KRT14+ cell populations, using mAb AN-17 or a commercially available polyclonal antibody to KRT14 (Sigma SAB4501657).
(§1) Flow cytometry was carried out according to standard protocols (PMID: 30602661), with data acquired using a BD LSRFortessa X-20 (BD Biosciences) and analysed using FlowJo software v10.5.0 (BD Biosciences). Samples assessed for KRT14+ cell populations included OVCAR3, CAOV4, ID8 mouse ovarian cancer cells, ascites-derived ovarian cancer cells derived from a clinical specimen (designated #3.1937-07) and cardiac blood from a mice bearing 12-week old epithelial ovarian tumours. For cell lines, 1×10⁶ cells per cell line were incubated with either mAb AN-17 (1:200 dilution) or a commercially available anti-KRT14 polyclonal antibody (Sigma SAB4501657; 1:50 dilution) as a positive control for 45 mins in non-immune serum at room temperature. The secondary antibodies, goat anti-mouse Alexa647 (mAb AN-17) or goat anti-rabbit IgG Alexa 488 (commercial Ab), were diluted 1:500 and incubated for 30 minutes. For blood samples. 2×10⁶ cells were incubated with an Alexa Fluor® 488-conjugated mAb AN-17 antibody for 45 minutes. […]

[2] = molecular target: T2, mouse KRT14 (Keratin, type I cytoskeletal 14) as expressed by murine ID8 ovarian cancer cells (Mus musculus (Mouse), UniProt Q61781 1-484); assay: flow cytometry of cardiac blood stained with anti-CD45 and mAb AN-17
T2 construct: whole, on cells; also called non-human protein
T2 sequence (looked up): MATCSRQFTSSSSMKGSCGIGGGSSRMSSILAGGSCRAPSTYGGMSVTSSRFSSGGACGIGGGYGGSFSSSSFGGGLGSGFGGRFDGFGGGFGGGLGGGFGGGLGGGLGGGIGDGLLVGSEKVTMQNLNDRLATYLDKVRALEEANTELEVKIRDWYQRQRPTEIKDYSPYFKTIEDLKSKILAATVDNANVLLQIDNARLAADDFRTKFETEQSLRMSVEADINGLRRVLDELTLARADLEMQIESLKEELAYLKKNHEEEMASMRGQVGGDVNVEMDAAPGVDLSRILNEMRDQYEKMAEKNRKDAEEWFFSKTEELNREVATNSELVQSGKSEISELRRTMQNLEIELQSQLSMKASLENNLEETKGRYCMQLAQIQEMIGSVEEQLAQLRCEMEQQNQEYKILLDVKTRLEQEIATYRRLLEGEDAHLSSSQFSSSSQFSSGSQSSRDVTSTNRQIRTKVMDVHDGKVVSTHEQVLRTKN
Experimental: Cardiac blood was taken from mice bearing 12-week old ID8 iRFP720+ epithelial ovarian tumours and stained using anti-CD45 and mAb AN-17. Circulating ID8 tumour cells were identified as KRT14+CD45− cells and confirmed by iRFP720+ status. iRFP720+ID8 cells spiked into blood was used as a positive control.
as §1

B1: monoclonal anti-KRT14 antibody AN-17 (antibody, V domains shown)
VH: QVQLKESGPGLVAPSQSLSITCTVSGFSLSRYSVHWVRQPPGKGLEWLGMIWGGGSTDYNSALKSRLSISKDNSKSQVFLKMNSLQTDDTAMYYCARKDYGYSYFDYWGQGTTLTVSS
VL: DVLMTQTPLSLPVSLGDQASISCRSSQSIVHSNGNTYLEWYLQKPGQSPKLLIYKVSNRFSGVPDRFSGSGSGTDFTLKISRVEAEDLGVYYCFQGSHVPFTFGSGTKLEIKR
notes: the isotype-matched control used is mouse IgG1 kappa; Some assays used it conjugated to Alexa Fluor 488 or Alexa-647; also called mAb AN-17; mAb AN17
binding result [1]: binds
binding result [2]: binds
